The record followed here is PMC1931443, “Vertebrate DM domain proteins bind similar DNA sequences and can heterodimerize on DNA”.

The target of data set [1] is T1, DMRT5 (mouse, UniProt A2A9A2 1-531). Briefly: EMSA supershift; 9E10; EMSA: 10 mM Tris-HCl pH 7.9, 100 mM KCl, 10% glycerol, 5 mM MgCl2, 1 mM spermidine, 0.075% Triton-X-100, 1 mM DTT, 1 ug BSA, 0.1 ug dI-dC, 75 ng plasmid DNA, 0.5 ng probe, 4 ul IVT mix in 20 ul, on ice 10 min; gel at 4 C; IVT with 20 uM ZnSO4. Conditions: protein: ivt; tags: N-terminal Myc; label: 32P (Klenow fill-in); 5' overhang 4 nt both ends (filled in on labeling).
T1 sequence (A2A9A2 whole entry): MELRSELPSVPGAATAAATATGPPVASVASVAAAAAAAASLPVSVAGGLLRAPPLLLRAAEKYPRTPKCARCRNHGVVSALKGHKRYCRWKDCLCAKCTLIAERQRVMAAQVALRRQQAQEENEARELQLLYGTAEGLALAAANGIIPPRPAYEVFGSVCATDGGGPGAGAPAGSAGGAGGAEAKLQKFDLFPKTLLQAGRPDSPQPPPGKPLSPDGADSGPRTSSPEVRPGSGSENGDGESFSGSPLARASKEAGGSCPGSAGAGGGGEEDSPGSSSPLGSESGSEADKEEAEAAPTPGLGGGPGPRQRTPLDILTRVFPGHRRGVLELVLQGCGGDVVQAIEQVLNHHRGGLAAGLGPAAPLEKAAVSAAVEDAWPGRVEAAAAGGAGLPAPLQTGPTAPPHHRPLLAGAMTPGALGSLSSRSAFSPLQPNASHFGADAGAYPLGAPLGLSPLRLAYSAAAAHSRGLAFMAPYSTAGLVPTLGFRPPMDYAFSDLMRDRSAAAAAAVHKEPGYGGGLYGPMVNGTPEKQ

The target in data set [2] is T2, DMRT3 (mouse, UniProt Q80WT2 1-476). Nature of the data set: EMSA supershift; mainly dimer; 9E10; EMSA: 10 mM Tris-HCl pH 7.9, 100 mM KCl, 10% glycerol, 5 mM MgCl2, 1 mM spermidine, 0.075% Triton-X-100, 1 mM DTT, 1 ug BSA, 0.1 ug dI-dC, 75 ng plasmid DNA, 0.5 ng probe, 4 ul IVT mix in 20 ul, on ice 10 min; gel at 4 C; IVT with 20 uM ZnSO4. Conditions: protein: ivt; tags: N-terminal Myc; label: 32P (Klenow fill-in); 5' overhang 4 nt both ends (filled in on labeling).
T2 sequence (Q80WT2 whole entry): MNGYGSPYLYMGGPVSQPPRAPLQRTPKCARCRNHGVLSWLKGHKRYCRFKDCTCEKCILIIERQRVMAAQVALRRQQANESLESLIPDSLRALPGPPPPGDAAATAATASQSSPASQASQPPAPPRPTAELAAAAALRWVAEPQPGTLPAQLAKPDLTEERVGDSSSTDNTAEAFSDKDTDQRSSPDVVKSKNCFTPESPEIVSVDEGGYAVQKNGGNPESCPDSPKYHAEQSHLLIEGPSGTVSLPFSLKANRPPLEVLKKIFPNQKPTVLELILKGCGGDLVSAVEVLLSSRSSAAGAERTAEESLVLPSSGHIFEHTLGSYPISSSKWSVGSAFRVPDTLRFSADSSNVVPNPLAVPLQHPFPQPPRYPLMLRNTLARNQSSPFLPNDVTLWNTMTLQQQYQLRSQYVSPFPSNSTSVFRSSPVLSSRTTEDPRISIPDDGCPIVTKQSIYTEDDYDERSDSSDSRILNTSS

Another data set addresses DMRT4 (mouse, UniProt Q8CFG4 1-490). Nature of the data set: EMSA; complex fails to enter gel (possible aggregate); EMSA: 10 mM Tris-HCl pH 7.9, 100 mM KCl, 10% glycerol, 5 mM MgCl2, 1 mM spermidine, 0.075% Triton-X-100, 1 mM DTT, 1 ug BSA, 0.1 ug dI-dC, 75 ng plasmid DNA, 0.5 ng probe, 4 ul IVT mix in 20 ul, on ice 10 min; gel at 4 C; IVT with 20 uM ZnSO4. Conditions: protein: ivt; tags: C-terminal Myc; chain copies: 2; label: 32P (Klenow fill-in); 5' overhang 4 nt both ends (filled in on labeling). For orientation: In EMSA bound probe runs differently from free probe, usually more slowly.

Data set [3] has as its target T2, DMRT3. Briefly: EMSA supershift; primarily monomer; 9E10; EMSA: 10 mM Tris-HCl pH 7.9, 100 mM KCl, 10% glycerol, 5 mM MgCl2, 1 mM spermidine, 0.075% Triton-X-100, 1 mM DTT, 1 ug BSA, 0.1 ug dI-dC, 75 ng plasmid DNA, 0.5 ng probe, 4 ul IVT mix in 20 ul, on ice 10 min; gel at 4 C; IVT with 20 uM ZnSO4. Conditions: protein: ivt; tags: N-terminal Myc; label: 32P (Klenow fill-in); 5' overhang 4 nt both ends (filled in on labeling).

For data set [4], the target named is T1, DMRT5. Nature of the data set: competition; 40-fold excess; tolerated; EMSA: 10 mM Tris-HCl pH 7.9, 100 mM KCl, 10% glycerol, 5 mM MgCl2, 1 mM spermidine, 0.075% Triton-X-100, 1 mM DTT, 1 ug BSA, 0.1 ug dI-dC, 75 ng plasmid DNA, 0.5 ng probe, 4 ul IVT mix in 20 ul, on ice 10 min; gel at 4 C; IVT with 20 uM ZnSO4. Conditions: protein: ivt; tags: N-terminal Myc; 5' overhang 4 nt both ends.

DMRT4, sequence (Q8CFG4 whole entry): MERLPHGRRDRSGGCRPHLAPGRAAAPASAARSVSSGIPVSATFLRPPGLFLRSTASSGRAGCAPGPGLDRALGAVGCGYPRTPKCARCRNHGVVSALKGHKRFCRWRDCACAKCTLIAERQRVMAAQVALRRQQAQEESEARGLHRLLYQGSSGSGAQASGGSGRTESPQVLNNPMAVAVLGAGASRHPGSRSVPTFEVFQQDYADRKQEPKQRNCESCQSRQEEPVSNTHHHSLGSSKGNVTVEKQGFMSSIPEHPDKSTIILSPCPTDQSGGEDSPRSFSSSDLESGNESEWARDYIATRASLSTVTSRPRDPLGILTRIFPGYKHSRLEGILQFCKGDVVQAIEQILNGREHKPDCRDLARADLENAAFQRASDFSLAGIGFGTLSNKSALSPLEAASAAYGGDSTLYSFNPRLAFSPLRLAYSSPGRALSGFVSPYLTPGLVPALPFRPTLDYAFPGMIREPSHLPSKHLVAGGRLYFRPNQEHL

B1: 1RE (Figure 2) (dsDNA)
DNA 1: TCGAGCCCGCAACAATGTTGCAAATC
DNA 2: TCGAGATTTGCAACATTGTTGCGGGC
As for B1, the binding result with DMRT5 [1], with DMRT3 [2] and with DMRT4 was “binds” throughout.

B2: 3RE (dsDNA)
DNA 1: TCGAGAACAATGTAACAATTTCGCCC
DNA 2: TCGAGGGCGAAATTGTTACATTGTTC
On to B2, for which the binding result in the data set with DMRT3 [3] is reported as “binds”.

B3: DMRT1 site -8G (dsDNA)
DNA 1: TCGAGATGTGATACATTGTTGC
DNA 2: TCGAGCAACAATGTATCACATC
On to B3, for which the binding result with DMRT5 [4] is “binds”.
